Results reported in IntAct's records for PubMed 16834335.

B1: Modulator of FtsH protease HflC (Escherichia coli (strain K12)), P0ABC3 (parent)
chain: MRKSVIAIIIIVLVVLYMSVFVVKEGERGITLRFGKVLRDDDNKPLVYEPGLHFKIPFIETVKMLDARIQTMDNQADRFVTKEKKDLIVDSYIKWRISDFSRYYLATGGGDISQAEVLLKRKFSDRLRSEIGRLDVKDIVTDSRGRLTLEVRDALNSGSAGTEDEVTTPAADNAIAEAAERVTAETKGKVPVINPNSMAALGIEVVDVRIKQINLPTEVSEAIYNRMRAEREAVARRHRSQGQEEAEKLRATADYEVTRTLAEAERQGRIMRGEGDAEAAKLFADAFSKDPDFYAFIRSLRAYENSFSGNQDVMVMSPDSDFFRYMKTPTSATR
partner: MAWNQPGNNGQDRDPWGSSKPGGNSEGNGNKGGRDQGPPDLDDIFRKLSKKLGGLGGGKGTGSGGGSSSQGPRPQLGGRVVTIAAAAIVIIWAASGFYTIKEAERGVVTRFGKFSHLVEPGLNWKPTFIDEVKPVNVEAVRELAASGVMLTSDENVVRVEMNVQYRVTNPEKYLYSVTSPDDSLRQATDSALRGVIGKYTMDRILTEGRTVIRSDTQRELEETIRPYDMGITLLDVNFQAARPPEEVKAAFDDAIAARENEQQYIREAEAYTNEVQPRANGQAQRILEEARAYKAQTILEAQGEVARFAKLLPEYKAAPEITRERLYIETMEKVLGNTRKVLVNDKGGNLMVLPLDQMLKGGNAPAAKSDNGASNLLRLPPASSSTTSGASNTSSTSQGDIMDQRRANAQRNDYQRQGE

Variants of: B1
Conditions: with hflk_ecoli hflK

Variant | effect of a mutation on the interaction
A286I | decreasing interaction strength
